This assay deals with T1, PopC expressed in E. coli (M. xanthus, UniProt Q1DFT5 1-475).
T1 construct: PopC of Myxococcus xanthus, expressed as 'native' PopC in E. coli; no tag is named; 'Native' probably means the untagged whole protein; also called native PopC; source: E. coli Rosetta-2(DE3) (WT or ΔtonB), IPTG-induced, in isolated membranes / cell fractions
T1 sequence (looked up): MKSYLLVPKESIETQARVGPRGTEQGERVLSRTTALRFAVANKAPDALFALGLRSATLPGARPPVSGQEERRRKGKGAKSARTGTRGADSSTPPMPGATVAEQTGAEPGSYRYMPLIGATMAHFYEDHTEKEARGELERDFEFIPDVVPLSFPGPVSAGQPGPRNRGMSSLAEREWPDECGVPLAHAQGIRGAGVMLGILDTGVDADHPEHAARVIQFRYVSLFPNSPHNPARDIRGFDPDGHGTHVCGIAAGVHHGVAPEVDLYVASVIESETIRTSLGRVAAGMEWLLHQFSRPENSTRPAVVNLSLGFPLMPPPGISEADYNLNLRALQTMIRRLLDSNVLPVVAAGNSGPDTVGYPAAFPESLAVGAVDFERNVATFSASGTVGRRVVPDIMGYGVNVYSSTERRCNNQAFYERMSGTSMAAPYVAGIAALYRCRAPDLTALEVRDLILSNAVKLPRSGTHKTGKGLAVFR
Kind of assay: affinity purification with mass spectrometry; the co-IP samples (α-PopC on E. coli membranes, WT and ΔtonB) analysed by label-free quantitative MS; iBAQ ratio of Oar with PopC over without PopC, normalised to the input. The settings on record: partners not purified.

B1: Oar expressed in E. coli (natural protein, M. xanthus, UniProt P38370 27-1061, looked up)
chain: QSSTIIGTVIDAQSRQPAADVVVTATSPNLQGEQTVVTDAQGNYRIPQLPPGDYTLRFEKEQFKPYARSAIQLRLNRTIRVNVELLPEALGEVVEIVGAPPTIDVGSTTMGVNVDQEFIKRIAVARPGGKGGATRSFESLAELAPGAQNDNYGVSINGSTSPENGYVVDGLSTNDPAFGVNASPLSIEFVQDVNIITGGYMPEFGRSTGGVINAVTRSGSNEFHGSVFANWTPGTLEGTRKQIREEGTVITGQNQLQNLGDFGATLGGPILKDKLWFFAGFAPSFTRYQHTRTLNALRVDDEGNTIKDETDFTVADAIPGSARKYYADSRTIQYMGKLTYLINQDHNVSFALNGTPTSTGGLGKLSVNPQSGGLPGVLATRPGDFGLTETKANTTSLALKYAGAFADKKVLVDANLGWFHQTASTLPGDGSNLGDRTGLAGYSRMVYTTPRALTLFEALPEGQEGACGSTPEEQLVRSPVTGYGVGGPGFMSDQTLDRYQANAKATYLLNALGTHVFKAGVDVELLSFDQVKAYGGGVFFQEGSNYGVAGQGPAVHDARRYGYQTGPDSAVTQFTQVAKTTSTTVGGFLQDSWSIANRVTLNLGVRYDVQALYGGNGDLSLLLGNQWSPRIGAIVDPFANGRAKVFVNFARYYEQVPLNLMDRAFPGENRISARRSLAEPGQGTATSCDPSSFESQQATCNTDSNLLAIPESSRNVNRFYTGGTVGGTPVDPDIKAQSSDEIVVGAEYEVLANTRLGASYTHKDMNSVIEDMSRDDGNTYFLGNPGSGFAGEFPTPVRNYDNVTVYLNRTFADGWLAQANYTWSRLYGNYPGLFRPETGQLDPNILSDFDLIELLENRTGLLPFDRTHQIKVFGAKEFNISNALSASVGVSYRGSSGTPINYWGSHWAYLQDESFVLPRGAGGRTPWINTIDSNIGVNYRVSKDSVVSFTLDVFNLFNFQGVNTVDQTYTLRDIKPIPGGTPADLENLPGRVEFQDQAPRDEPFGSVDGDVNKNFKNPLSYQAPRQVRFGIRYTF
notes: Oar (MXAN_1450) of Myxococcus xanthus, expressed as 'native' Oar in E. coli; no tag is named; 'Native' probably means the untagged protein with its own signal peptide; it was found enriched in the E. coli outer membrane; also called native Oar; source: E. coli Rosetta-2(DE3) (WT or ΔtonB), IPTG-induced, in isolated membranes / cell fractions
In the case of B1, the “fold enrichment of Oar in the α-PopC co-IP, with PopC over without PopC (iBAQ ratio), WT E. coli” value turned out to be 4.9 fold and the “fold enrichment of Oar in the α-PopC co-IP, with PopC over without PopC (iBAQ ratio), ΔtonB E. coli” value is 15.1 fold.

(Values after publication PMC6434023, “A TonB-dependent transporter is required for secretion of protease PopC across the bacterial outer membrane” (Nature Communications, 2019).)
